Test [1] addresses T1, purified recombinant 161P2F10B extracellular domain (Tag5-161P2F10B ECD, amino acids 46-875) (human, UniProt O14638 46-875).
T1 construct: also called full length ECD
Description: SPR (BIAcore), MAb captured on chip, recombinant 161P2F10B injected, 1:1 fit. (In general: SPR reads the build-up and loss of mass on a sensor chip optically.)
Description: Briefly, each purified human MAb is captured onto a CM5 sensor chip surface. On average approximately 150 RUs of each MAb is captured in every cycle.

Test [2] has as its target T2, 161P2F10B variant 1 (human 161P2F10B), on the cell surface (human, UniProt O14638 1-875).
T2 construct: Cell surface pyrophosphatase/phosphodiesterase; also called 161P2F10B v.1; CD203c
The test can be described thus: FACS titration on KU-812 cells, one site binding fit.
Description: At the end of the incubation, cells were washed and incubated with anti-hIgG-PE detection antibody for 45 min at 4° C. After washing the unbound detection antibodies, the cells were analyzed by FACS. MFI values of each point were obtained using CellQuest Pro software and were used for the affinity calculation using Graphpad Prism software and the one site binding (hyperbola) equation.
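For koff in this document: purified human MAbs immobilised by capture on a CM5 chip surface, about 150 RU of antibody per cycle.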
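For kon in this document: purified human MAbs immobilised by capture on a CM5 chip surface, about 150 RU of antibody per cycle.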

B1: Ha16-1(3,5)18 (antibody, IgG1, V domains shown)
VH: GPGLVKPSETLSLTCTVPGGSIRSYFWSWIRQPAGKGLEWIGRFYFSGSTNYNPSLKSRVTMSVDTSKNQFSLKLSSVTAADTAVYYCARDYGDHYYYYGMDVWGQGTTVTVSS
VL: VLTQPPSVSAAPGQKVTISCSGSSSNIGNNYVSWYQQFPGTAPKFLIYDNNKRSSGIPDRFSGSKSGTSATLGITGLQTGDEADYYCGTWDSSLSAVIFGGGTKLTVL
notes: The limits of VH (1-114) and VL (1-108) are stated in CLM-00001; the entries also hold a portion of the constant region; also called Ha16-1(3, 5)18.1; ATCC PTA-7452
With B1, in test [1], the Kd (usually the free concentration of one partner at which half of the binding sites on the other are occupied at equilibrium, for simple one-to-one binding) is 28 nM; the koff (as a rule, the first-order rate constant of dissociation) amounted to 0.00062 s⁻¹; the kon (commonly a measure of how fast the partners come together) came to 22000 M⁻¹ s⁻¹. In addition, the affinity in test [2], expressed as Kd, was 0.047 nM.

B2: H16-9.69 (antibody, V domains shown)
VH: WGLSEVSCKASGYTFTSYDIHWVRQATGQGLEWMGWMNPNSGNTVYAQKFQGRVTMTRNTSISTAYMELSSLRSEDTAVYYCARTVLLWPFDYWGQGTLVTVSS
VL: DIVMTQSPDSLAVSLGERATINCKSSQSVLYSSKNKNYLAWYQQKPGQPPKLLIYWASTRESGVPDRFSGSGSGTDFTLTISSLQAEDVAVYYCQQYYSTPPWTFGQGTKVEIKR
Take B2: in test [1], the Kd was determined as 4 nM, the koff was 0.000186 s⁻¹ and the kon worked out at 42400 M⁻¹ s⁻¹. This molecule also had a Kd in test [2] of 0.27 nM.

B3: H16-9.44 (antibody, V domains shown)
VH: LSLTCTVSGGSISSYYWSWIRQSAGKGLEWIGRIYTGVSTNYNPSLKSRVTMSVDTSKNQFSLKLSSVTAADTAVYYCARDYYDSSGYYPFDYWGQGTLVTVSS
VL: DIQMTQSPSSLSASVGDRVTISCRASQGISNYLAWFQQKPGKAPKSLIYAASSLENGVPSKFSGSGSGTDFTLTISSLQPEDFATYYCQQYNSSPFTFGPGTKVDIRR
notes: also called Ha16-9.44
As to B3, in test [1], the Kd was 0.76 nM, the koff was 0.000132 s⁻¹ and the kon was determined as 174000 M⁻¹ s⁻¹. The molecule further displayed a Kd in test [2] of 1.27 nM.

B4: H16-9.10 (antibody, V domains shown)
VH: LLESGPGLVKPSQTLSLTCAISGDSVSSNSAAWNWIRQSPSRGLEWLGRTYYRSKWYNAYAVSVKSRMTINPDTSKNQFSLQLNSVTPEDTAVYYCAREAGGWFDPWGQGTLVTVSS
VL: DIQMTQSPSSVSASVGDRVTITCRASQGIRSWLAWYQQKPGKAPKLLIYAASSLQSGVPSRFSGSGSGTDFTLTISSLQPEDFATYYCQQANSFPPTFGGGTKVEIKR
notes: also called Ha16-9.10
As for B4, in test [1], the Kd came out at 7.4 nM, the koff was 0.000442 s⁻¹ and the kon is 59500 M⁻¹ s⁻¹. The same molecule registered a Kd in test [2] of 0.5 nM.

B5: H16-9.33 (antibody, V domains shown)
VH: EVQLLESGPGLVKPSQTLSLTCAISGDSVSSNSAAWNWIRQSPSRGLEWLGRTYYRSKYYNAYPVSVKSRITINPDTSKNQFSLQLNSVTPEDTAVYYCAREAGGWFDPWGQGTLVTVSS
VL: DIQMTQSPSSVSASVGDRVTITCRANQGIRSWLAWYQQKPGKAPKLLIYAASSLQSGVPSRFSGSGSGTDFTLTISSLQPEDFATYYCQQANSFPPTFGGGTKVEIKR
B5: in test [1], the Kd amounted to 3.9 nM, the koff came to 0.000257 s⁻¹ and the kon came out at 66300 M⁻¹ s⁻¹.

B6: H16-1.93 (antibody, V domains shown)
VH: QVQLVQSGAEVKKPGASVKVSCKASGYTFTSYGISWVRQAPGQGLEWMGWISAYNGNTYYAQKLQARVTMTTDTSTSTAYMELRSLRSDDTAVYYCARDGYSSSWSLLHYYGMDVWGQGTTVTVSS
VL: DIQMTQSPSSLSASVGDRITITWRSSQGIYNSLAWYQQKPGKVPKLLIYAASTLHSGVPSRFSGSGSGTDFTLTISSLQPEDVATYYCQKYNSAPFTFGPGTKVDIKR
notes: Entries hold the leader (or part of it) and a portion of the constant region; also called ATCC PTA-7449
As for B6, in test [2], binding was put at a Kd of 0.09 nM.

B7: H16-1.67 (antibody, V domains shown)
VH: VESGPGLVKPSQTLSLTCTVSGGSINSFGYYWSWIRQYPGKGLEWIGFLYFTGSTYYNPSLKSRVTISVDTSKSQFSLKLSSVTAADTAVYYCARAGTMVRGAHYYGMDVWGQGTTVTVSS
VL: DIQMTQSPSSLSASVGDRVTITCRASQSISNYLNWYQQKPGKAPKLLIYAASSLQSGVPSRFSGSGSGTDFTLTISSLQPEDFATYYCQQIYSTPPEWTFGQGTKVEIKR
With B7, in test [1], the Kd is 43 nM, the koff came to 0.0007 s⁻¹ and the kon turned out to be 16000 M⁻¹ s⁻¹. Also, in test [2], the affinity, expressed as Kd, was 0.02 nM.

B8: Ha16-1(3,5)27.1 (antibody, V domains shown)
VH: LVESGAEVKKPGESLKISCKGSGYRFTSYWIGWVRQMPGKGLEWMGIIYPGDSDTRYSPSFQGQVTISADKSISTAYLQWSSLKASDTAMYYCARKDYYYYSMDVWGQGTTVTVSS
VL: GQSALTQPASVSGSPGQSITISCTGTSSDVGGYNYVSWYQQHPGQAPKLLIYGVNIRPSGVSTRFSGSKSGNTASLTISGLQAEDEADYYCSSYTRSSILVVFAGGTKLTVLG
notes: VH entry holds part of the leader; both hold a portion of the constant region
Take B8: in test [1], the Kd was found to be 4.8 nM, the koff was 0.000177 s⁻¹ and the kon turned out to be 36900 M⁻¹ s⁻¹. Also, binding in test [2] was characterised by a dissociation constant (Kd) of 0.014 nM.

B9: H16-7.213 (antibody, V domains shown)
VH: WGLSEVSCKASGYTFTGYYMHWVRQAPGQGLEWMGWINPNSGGTNYAQKFQGRVTMTRDTSISTAYMELSRLRSDDTAVYYCARELRYFGWLLSSLDYWGQGTLVTVSS
VL: DIQMTQSPSSLSASVGDRVTITCRASQSISSYLNWFQQKPGKAPKLLIYAASSLQSGVPSRFSGSESGTDFTLTISSLQPEDFATYSCQQSYSFPLTFGGGTKVEIKR
As for B9, in test [1], the Kd amounted to 3.9 nM, the koff amounted to 0.000509 s⁻¹ and the kon came to 129000 M⁻¹ s⁻¹.

B10: H16-1.68 (antibody, V domains shown)
VH: EVHLVESGGGVVQPGRSLRLSCAASGFTFRSYGMHWVRQAPGKGLEWVAVIWYDGSNKYYADSVKGRFTISRDNSKNTLYLQMNSLRAEDMAMYYCARSRITIFGVVHYGMDVWGQGTTVTVSS
VL: TQLTQSPSSLSASVGDRVTITCRASQNINSYLNWYQQKPGKAPKLLIYAASSLQSGVPSRFSGSGSGTDFTLTISSLQPEDFTTYYCQQSYSSAPTFGGGTKLEIKR
In the case of B10, in test [1], the Kd was found to be 2.3 nM, the koff was determined as 0.000244 s⁻¹ and the kon turned out to be 106000 M⁻¹ s⁻¹.

B11: Ha16-1(1)23 (antibody, V domains shown)
VH: VESGGGVVQPGRSLRLSCAASGFTFRSYGMHWVRQAPGKGLEWVAVIWSDGSNKYYADSVKGRFTISRDNSKNTLYLQMNSLRAEDTAVYYCAREGYYGSGSYYYYYGMDVWGQGTTVTVSS
VL: QAGLTQPPSVSKGLRQTATLTCTGNSNNVGTQGAAWLQQHQGHPPKLLSYRNNNRPSGISERLSASTSGNTASLTITGLQPEDEADYYCSAWDSSLSAVVFGGGTKLTVLG
On to B11, for which, in test [1], the Kd stood at 24 nM, the koff stood at 0.00088 s⁻¹ and the kon was determined as 36000 M⁻¹ s⁻¹.

B12: H16-9.65 (antibody, V domains shown)
VH: QVQLVESGGGVVQPGRSLRLSCAASGFTFSSYGMHWVRQAPGKGLEWVATIWFDGSNGYYADSVKGRFTISRDNSKNTLYLQMNSLRAEDTAVYYCARDSSGSYDHFDYWGQGTLVTVSS
VL: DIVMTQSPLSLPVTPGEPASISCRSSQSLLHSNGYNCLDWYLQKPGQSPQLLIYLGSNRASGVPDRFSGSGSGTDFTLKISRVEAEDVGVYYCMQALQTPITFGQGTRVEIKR
notes: Fully human XenoMouse MAb; Entries hold the leader (or part of it) and a portion of the constant region
With B12, in test [1], the Kd was 5 nM, the koff is 0.000464 s⁻¹ and the kon turned out to be 93700 M⁻¹ s⁻¹.

B13: Ha16-1(3,5)36 (antibody, V domains shown)
VH: EVQLVESGPGLVKPSETLSLTCTVSGGSISSSSYYWGWIRQPPGKGLEWIGSMYYSGSTYHNPSLKSRVIISVDTSKNQFSLKLSSVTAADTAVYYCARHYITVAGIFDYWGQGTLVTVSS
VL: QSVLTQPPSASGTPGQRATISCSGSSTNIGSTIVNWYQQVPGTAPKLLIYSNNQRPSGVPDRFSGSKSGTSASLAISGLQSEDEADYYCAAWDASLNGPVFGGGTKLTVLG
With B13, in test [1], the Kd came out at 8.7 nM, the koff worked out at 0.00046 s⁻¹ and the kon was 52900 M⁻¹ s⁻¹.

B14: Ha16-1(1)11 (antibody, V domains shown)
VH: GPGLVKPSETLSLTCTVSGGSISSYYWSWIRQPPGKGLEWIGYIYYSGSTNYNPSLKSRVTISVDTSKNQFSLKLSSVTAADTAVYYCARAVSYYYYGMDVWGQGTTVTVSS
VL: DIQMTQSPSSLSASVGDRVTITCRTIQNINSYLNWYQQRPGKAPKLLIYATSSLQSGVPSRFSGSGSGTDFTLTISSLQPEDFATYYCQQTYSTLFTFGPGTKVDIKR
notes: also called ATCC PTA-7450
In the case of B14, in test [1], the Kd came out at 21.7 nM, the koff is 0.00143 s⁻¹ and the kon was 65800 M⁻¹ s⁻¹. For the same molecule, binding in test [2] was characterised by a dissociation constant (Kd) of 0.004 nM.

B15: Ha16-1(3,5)56 (antibody, V domains shown)
VH: RCRLVESGAEVKKPGESLKISCKGSGYRFTSYWIGWVRQMPGKGLEWMGIIYPGDSDTRYSPSFQGQVTISADKSISTAYLQWRSLKASDTAMYYCARKDYYYYVMDVWGQGTTVTVSS
VL: DTISCTGTSSDVGNYNYVSWYQQHPGKAPKLMIYAVNNRPSGVSNRFSGSKSGNTASLTISGLQAEDEADYYCSSYTSSRNLVVFGGGTKLTVLG
In the case of B15, in test [1], the Kd is 14.5 nM, the koff came out at 0.000593 s⁻¹ and the kon stood at 40800 M⁻¹ s⁻¹. Further, the Kd in test [2] was 0.019 nM.

B16: H16-1(3,5)5 (antibody, V domains shown)
VH: EVQLVQSGAEVKKPGESLKISCKGSGYRFTSYWIGWVRQMPGKGLEWMGIIYPGDSDTRYSPSFQGQVTISADKSISTAYLQWSSLKASDTAMYYCARKDYYYYTMDVWGQGTTVTVSS
VL: QSALTQPASVSGSPGQSITISCTGTSSDVGGYNYVSWYQQHPGKAPKLMIYAVSNRPSGVSNRFSGSKSGNTASLTISGLQAEDEADYYCSSYTISRILVVFGGGTKLTVLG
notes: Entries hold the leader (or part of it) and a portion of the constant region; also called Ha16-1(3,5)5
For B16, in test [1], the Kd was 7.2 nM, the koff stood at 4.76e-05 s⁻¹ and the on-rate (kon) was determined as 6600 M⁻¹ s⁻¹.

B17: Ha16-1(3,5)19 (antibody, V domains shown)
VH: EVQLVQSGAEVKKPGESLKISCKGSGYRFTSYWIGWVRQMPGKGLEWMGIIYPGDSDTRYSPSFQGQVTISADKSISTAYLQWSSLKASDTAMYYCARKDYYYYAMDVWGQGTTVTVSS
VL: QSALTQPASVSGSPGQSITISCTGTSSDVGRYNYVSWYQQHPGQAPKLMIYGISIRPSGVSPRFSGSKSGNTASLTISGLQAEDEADYYCSSHTSNSTLVVFAGGTKLTVLG
notes: Entries hold part of the leader and a portion of the constant region
As to B17, in test [1], the Kd was found to be 1.68 nM, the koff came to 8.4e-05 s⁻¹ and the kon was 50000 M⁻¹ s⁻¹.

B18: Ha16-1(3,5)42 (antibody, V domains shown)
VH: EVQLVQSGAEVKKPGESLKISCKGSGYRFTSYWIGWVRQMPGKGLEWMGIIYPGDSDTRYSPSFQGQVTISADKSISTAYLQWSSLKASDTAMYYCARKDYYYYSMDVWGQGTTVTVSS
VL: QSALTQPASVSGSPGQSITISCTGTSSDVGRFNYVSWYQQRPGKAPKLMIYAVNIRPSGVSNRFSGSKSGNTASLTISGLQAEDEAGYYCSSYTSSSTLLVFGGGTKLTVLG
notes: Entries hold the leader (or part of it) and a portion of the constant region
Regarding B18, in test [1], the Kd stood at 4.3 nM, the koff worked out at 0.000205 s⁻¹ and the kon was found to be 47600 M⁻¹ s⁻¹.

B19: H16-7.8 (antibody, V domains shown)
VH: QVQLQESGPGLVKPSQTLSLTCTVSGGSISSGGYYWSWIRQHPGKGLEWIGIIYYSGSTYYNPSLKSRVTISVDTSKNQFSLKLNSVTAADTAVFYCARVAIVTTIPGGMDVWGQGTTVTVSS
VL: EIVLTQSPDFQSVTPKEKVTITCRASQSIGISLHWYQQKPDQSPKLLIKYASQSFSGVPSRFSGSGSGTDFTLTINSLEAEDAATYYCHQSRSFPWTFGQGTKVEIKR
notes: Entries hold the leader and a portion of the constant region
Take B19: in test [1], the Kd stood at 18 nM, the koff worked out at 0.00063 s⁻¹ and the kon was found to be 35000 M⁻¹ s⁻¹. This molecule also registered a Kd in test [2] of 0.07 nM.

(Values after US20090022663A1 (published 2009).)
